Results as given in article PMC11811891, “Structural insights into human TFIIIC promoter recognition” (Science Advances, 2023).

Columns and labels:
[1] = molecular target: T1, human TFIIIC subunit TFIIIC220 (human, UniProt Q12789 1-2109); test: cryo-EM structure; purified hTFIIIC (3.17 μM) alone or with human TRR-TCT3-2 tRNA gene DNA at a 1:1 molar ratio; EM buffer 20 mM Hepes pH 8, 225 mM KCl, 2 mM MgCl2, 5 mM DTT; 0.1% octyl-β-glucoside; separate reconstructions of τA and of dimeric τB; settings: both partners purified
T1 construct: TFIIIC220, largest subunit of human TFIIIC; 2109 amino acids as printed; No truncation is described; the expected mass of 624 kDa is that of the intact complex; also called τ138 in yeast (homolog); GTF3C1; source: Sf21 insect cells, baculovirus, coexpressed with the other five hTFIIIC subunits; purified (anti-FLAG M2 agarose, Capto HiRes Q); not shown: 3x FLAG, C-terminal, kept
T1 sequence (Q12789 whole entry, the tested form may be a part): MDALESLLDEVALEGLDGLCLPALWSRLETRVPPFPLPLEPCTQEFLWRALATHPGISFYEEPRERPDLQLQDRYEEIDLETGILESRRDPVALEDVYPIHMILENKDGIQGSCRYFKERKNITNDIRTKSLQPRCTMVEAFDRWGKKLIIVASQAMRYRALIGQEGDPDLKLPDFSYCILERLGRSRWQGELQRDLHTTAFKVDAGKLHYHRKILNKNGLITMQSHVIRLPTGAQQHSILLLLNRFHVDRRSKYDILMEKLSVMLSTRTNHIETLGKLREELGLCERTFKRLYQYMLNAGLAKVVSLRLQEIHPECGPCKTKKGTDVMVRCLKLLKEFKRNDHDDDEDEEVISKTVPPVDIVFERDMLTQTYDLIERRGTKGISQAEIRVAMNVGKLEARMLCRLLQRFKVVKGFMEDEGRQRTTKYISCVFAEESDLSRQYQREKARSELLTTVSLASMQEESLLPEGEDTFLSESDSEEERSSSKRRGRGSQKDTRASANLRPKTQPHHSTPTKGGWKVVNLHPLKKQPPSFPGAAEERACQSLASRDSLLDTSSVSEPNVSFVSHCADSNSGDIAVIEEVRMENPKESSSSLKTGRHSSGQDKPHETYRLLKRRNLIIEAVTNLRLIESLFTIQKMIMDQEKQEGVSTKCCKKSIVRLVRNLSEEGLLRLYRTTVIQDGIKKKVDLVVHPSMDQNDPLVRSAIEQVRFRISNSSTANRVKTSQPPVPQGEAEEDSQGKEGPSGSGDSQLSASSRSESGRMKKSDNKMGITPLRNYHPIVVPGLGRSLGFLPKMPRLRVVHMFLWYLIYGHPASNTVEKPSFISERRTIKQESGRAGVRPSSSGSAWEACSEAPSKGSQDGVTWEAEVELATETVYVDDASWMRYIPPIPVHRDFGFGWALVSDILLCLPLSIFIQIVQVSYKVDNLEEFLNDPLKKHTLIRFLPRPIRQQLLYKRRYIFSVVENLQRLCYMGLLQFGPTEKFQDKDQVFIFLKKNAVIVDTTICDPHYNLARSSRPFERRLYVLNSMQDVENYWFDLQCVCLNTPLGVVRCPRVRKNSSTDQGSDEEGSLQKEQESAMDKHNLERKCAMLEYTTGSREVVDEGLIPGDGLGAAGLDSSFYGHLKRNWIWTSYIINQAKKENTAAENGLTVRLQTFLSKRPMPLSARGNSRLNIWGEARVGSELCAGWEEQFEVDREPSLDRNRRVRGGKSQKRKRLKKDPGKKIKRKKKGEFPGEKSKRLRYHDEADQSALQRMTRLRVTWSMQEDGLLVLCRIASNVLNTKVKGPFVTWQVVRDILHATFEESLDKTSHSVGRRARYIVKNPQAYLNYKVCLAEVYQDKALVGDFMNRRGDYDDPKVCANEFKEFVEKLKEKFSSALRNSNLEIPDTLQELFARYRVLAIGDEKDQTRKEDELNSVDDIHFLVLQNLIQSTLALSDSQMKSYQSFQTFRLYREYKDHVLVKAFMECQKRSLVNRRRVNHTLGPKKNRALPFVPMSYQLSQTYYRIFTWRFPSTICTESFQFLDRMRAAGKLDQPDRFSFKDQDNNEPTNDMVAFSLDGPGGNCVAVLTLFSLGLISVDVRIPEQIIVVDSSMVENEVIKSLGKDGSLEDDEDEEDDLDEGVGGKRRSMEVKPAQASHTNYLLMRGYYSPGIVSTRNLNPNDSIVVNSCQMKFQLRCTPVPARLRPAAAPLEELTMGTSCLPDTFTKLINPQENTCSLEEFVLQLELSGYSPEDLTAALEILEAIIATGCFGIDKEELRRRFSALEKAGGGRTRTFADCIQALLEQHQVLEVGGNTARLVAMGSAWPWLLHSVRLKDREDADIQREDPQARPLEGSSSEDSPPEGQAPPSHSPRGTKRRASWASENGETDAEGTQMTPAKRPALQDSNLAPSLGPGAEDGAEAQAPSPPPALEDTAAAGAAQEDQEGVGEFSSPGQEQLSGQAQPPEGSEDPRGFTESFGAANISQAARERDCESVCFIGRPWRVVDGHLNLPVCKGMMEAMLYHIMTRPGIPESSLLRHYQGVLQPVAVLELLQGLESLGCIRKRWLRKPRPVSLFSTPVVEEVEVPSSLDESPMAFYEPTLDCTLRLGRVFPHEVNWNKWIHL

[2] = molecular target: T2, human TFIIIC subunit TFIIIC102 (human, UniProt Q9Y5Q9 1-886); test: as above; settings: both partners purified
T2 construct: TFIIIC102, subunit of human TFIIIC; No truncation is described; also called τ131 in yeast (homolog); GTF3C3; source: Sf21 insect cells, baculovirus, coexpressed with the other five hTFIIIC subunits; purified (anti-FLAG M2 agarose, Capto HiRes Q)
T2 sequence: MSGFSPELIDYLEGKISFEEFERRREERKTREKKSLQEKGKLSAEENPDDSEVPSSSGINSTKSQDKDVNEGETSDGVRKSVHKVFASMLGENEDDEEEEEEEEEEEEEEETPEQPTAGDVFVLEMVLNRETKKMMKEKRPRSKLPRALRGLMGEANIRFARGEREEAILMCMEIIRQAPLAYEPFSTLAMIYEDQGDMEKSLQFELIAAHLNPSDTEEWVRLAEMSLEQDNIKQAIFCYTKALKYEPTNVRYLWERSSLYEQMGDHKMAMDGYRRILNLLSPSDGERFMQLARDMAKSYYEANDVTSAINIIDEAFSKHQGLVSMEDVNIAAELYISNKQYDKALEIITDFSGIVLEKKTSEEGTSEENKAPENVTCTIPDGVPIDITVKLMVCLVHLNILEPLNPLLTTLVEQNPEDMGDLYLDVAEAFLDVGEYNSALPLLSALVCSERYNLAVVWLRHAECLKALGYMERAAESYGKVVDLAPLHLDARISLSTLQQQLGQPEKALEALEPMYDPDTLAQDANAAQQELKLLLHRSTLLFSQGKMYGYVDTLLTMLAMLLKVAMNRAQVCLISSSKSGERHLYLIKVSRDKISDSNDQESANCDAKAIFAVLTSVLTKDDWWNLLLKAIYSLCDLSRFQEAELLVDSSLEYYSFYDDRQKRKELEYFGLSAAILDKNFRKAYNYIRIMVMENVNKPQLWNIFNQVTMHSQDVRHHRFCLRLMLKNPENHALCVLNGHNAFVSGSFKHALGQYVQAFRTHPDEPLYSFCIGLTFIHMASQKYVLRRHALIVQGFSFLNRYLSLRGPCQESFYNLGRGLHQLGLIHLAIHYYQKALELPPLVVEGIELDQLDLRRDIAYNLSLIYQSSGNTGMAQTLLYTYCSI

[3] = molecular target: TFIIIC220;TFIIIC110;TFIIIC102;TFIIIC90;TFIIIC63;TFIIIC35 (human;human;human;human;human;human, UniProt Q12789;Q8WUA4;Q9Y5Q9;Q9UKN8;Q9Y5Q8;Q969F1 1-2109;1-911;1-886;1-822;1-519;1-213, |||||); test: filter binding; 150 mM KCl, 2 mM MgCl2, 4 C; Filter binding: 20 mM Tris-HCl pH 7.5, 150 mM KCl, 2 mM MgCl2, 5 mM DTT, 30 min 4 C, ~0.5 nM DNA; EMSA: 20 mM Hepes pH 8, 225 mM KCl, 2 mM MgCl2, 5 mM DTT, RT 10 min, 0.8% agarose gel at 4 C; settings: protein: recombinant;recombinant;recombinant;recombinant;recombinant;recombinant; tags: C-terminal 3xFLAG;N-terminal TEV-cleavable His;;;N-terminal TEV-cleavable His;; copies: 1;1;1;1;1;1; label: 5'-32P; blunt
Sequence of TFIIIC220;TFIIIC110;TFIIIC102;TFIIIC90;TFIIIC63;TFIIIC35 (Q12789 whole entry, chain 1 of 3): as the sequence (Q12789 whole entry, the tested form may be a part) above
Sequence of TFIIIC220;TFIIIC110;TFIIIC102;TFIIIC90;TFIIIC63;TFIIIC35 (Q8WUA4 whole entry, chain 2 of 3): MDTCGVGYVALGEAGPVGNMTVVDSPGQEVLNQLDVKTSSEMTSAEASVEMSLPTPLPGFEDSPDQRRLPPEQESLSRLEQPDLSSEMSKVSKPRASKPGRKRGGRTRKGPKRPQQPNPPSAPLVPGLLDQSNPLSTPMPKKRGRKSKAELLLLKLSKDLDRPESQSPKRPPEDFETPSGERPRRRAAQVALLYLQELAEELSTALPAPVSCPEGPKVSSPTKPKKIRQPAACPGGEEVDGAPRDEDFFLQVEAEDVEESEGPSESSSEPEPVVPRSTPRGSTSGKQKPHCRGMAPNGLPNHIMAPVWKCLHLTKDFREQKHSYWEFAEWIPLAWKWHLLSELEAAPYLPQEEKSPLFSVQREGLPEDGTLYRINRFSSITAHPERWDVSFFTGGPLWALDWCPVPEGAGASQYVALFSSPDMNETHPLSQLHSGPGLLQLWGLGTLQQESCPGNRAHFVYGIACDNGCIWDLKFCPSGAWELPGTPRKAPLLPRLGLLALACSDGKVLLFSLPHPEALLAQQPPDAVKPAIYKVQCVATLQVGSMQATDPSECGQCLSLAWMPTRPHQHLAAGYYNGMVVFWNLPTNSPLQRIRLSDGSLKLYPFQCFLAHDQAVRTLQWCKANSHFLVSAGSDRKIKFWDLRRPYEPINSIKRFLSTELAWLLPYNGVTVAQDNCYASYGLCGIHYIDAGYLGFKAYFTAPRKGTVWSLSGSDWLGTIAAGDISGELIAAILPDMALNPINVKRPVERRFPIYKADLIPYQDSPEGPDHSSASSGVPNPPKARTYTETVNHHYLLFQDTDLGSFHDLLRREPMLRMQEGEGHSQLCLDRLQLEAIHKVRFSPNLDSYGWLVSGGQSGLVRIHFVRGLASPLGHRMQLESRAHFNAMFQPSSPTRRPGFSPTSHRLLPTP
Sequence of TFIIIC220;TFIIIC110;TFIIIC102;TFIIIC90;TFIIIC63;TFIIIC35 (Q9UKN8 whole entry, chain 4 of 3): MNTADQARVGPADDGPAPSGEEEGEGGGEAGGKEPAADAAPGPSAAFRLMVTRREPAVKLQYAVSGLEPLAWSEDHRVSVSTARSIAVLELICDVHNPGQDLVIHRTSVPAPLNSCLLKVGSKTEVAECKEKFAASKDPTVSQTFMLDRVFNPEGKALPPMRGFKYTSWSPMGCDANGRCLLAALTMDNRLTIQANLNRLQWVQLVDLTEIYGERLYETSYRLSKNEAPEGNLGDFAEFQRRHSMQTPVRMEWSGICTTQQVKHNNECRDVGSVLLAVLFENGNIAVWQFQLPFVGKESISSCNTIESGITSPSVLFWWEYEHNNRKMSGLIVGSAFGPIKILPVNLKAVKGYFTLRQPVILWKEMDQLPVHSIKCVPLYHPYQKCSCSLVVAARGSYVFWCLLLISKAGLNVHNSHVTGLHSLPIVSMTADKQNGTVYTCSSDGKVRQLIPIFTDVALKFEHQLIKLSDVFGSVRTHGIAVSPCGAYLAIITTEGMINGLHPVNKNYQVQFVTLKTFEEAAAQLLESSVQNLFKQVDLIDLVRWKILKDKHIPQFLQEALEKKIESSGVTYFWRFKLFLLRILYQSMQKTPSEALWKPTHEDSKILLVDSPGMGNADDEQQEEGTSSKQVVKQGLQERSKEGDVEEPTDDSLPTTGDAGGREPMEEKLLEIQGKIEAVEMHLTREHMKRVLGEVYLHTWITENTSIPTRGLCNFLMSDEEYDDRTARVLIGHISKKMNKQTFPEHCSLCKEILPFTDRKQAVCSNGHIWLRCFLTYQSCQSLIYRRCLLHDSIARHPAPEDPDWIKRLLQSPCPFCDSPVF

B1: TFIIIC35-TFIIIC63 heterodimer (complex, human)
chain 1: MAAAADERSPEDGEDEEEEEQLVLVELSGIIDSDFLSKCENKCKVLGIDTERPILQVDSCVFAGEYEDTLGTCVIFEENVEHADTEGNNKTVLKYKCHTMKKLSMTRTLLTEKKEGEENIGGVEWLQIKDNDFSYRPNMICNFLHENEDEEVVASAPDKSLELEEEEIQMNDSSNLSCEQEKPMHLEIEDSGPLIDIPSETEGSVFMETQMLP
chain 2: MAAEAADLGLGAAVPVELRRERRMVCVEYPGVVRDVAKMLPTLGGEEGVSRIYADPTKRLELYFRPKDPYCHPVCANRFSTSSLLLRIRKRTRRQKGVLGTEAHSEVTFDMEILGIISTIYKFQGMSDFQYLAVHTEAGGKHTSMYDKVLMLRPEKEAFFHQELPLYIPPPIFSRLDAPVDYFYRPETQHREGYNNPPISGENLIGLSRARRPHNAIFVNFEDEEVPKQPLEAAAQTWRRVCTNPVDRKVEEELRKLFDIRPIWSRNAVKANISVHPDKLKVLLPFIAYYMITGPWRSLWIRFGYDPRKNPDAKIYQVLDFRIRCGMKHGYAPSDLPVKAKRSTYNYSLPITVKKTSSQLVTMHDLKQGLGPSGTSGARKPASSKYKLKDSVYIFREGALPPYRQMFYQLCDLNVEELQKIIHRNDGAENSCTERDGWCLPKTSDELRDTMSLMIRQTIRSKRPALFSSSAKADGGKEQLTYESGEDEEDEEEEEEEEEDFKPSDGSENEMETEILDYV
notes: TFIIIC35, subunit of human TFIIIC; as the chain of m6; TFIIIC63, subunit of human TFIIIC; as the chain of m5; source: Sf21 insect cells, baculovirus, coexpressed within the six-subunit hTFIIIC complex; purified (anti-FLAG M2 agarose, Capto HiRes Q)
B1: binds [1]; binds [2].

B2: TRR-TCT3-2 tRNA gene, 32P-labeled (dsDNA)
DNA 1: ACGTGTCTGGCTCTGTGGCGCAATGGATAGCGCATTGGACTTCTAGATAGTTAGAGAAATTCAAAGGTTGTGGGTTCGAGTCCCACAGAGTCGCTTTT
DNA 2: AAAAGCGACTCTGTGGGACTCGAACCCACAACCTTTGAATTTCTCTAACTATCTAGAAGTCCAATGCGCTATCCATTGCGCCACAGAGCCAGACACGT
With B2 the Kd [3] was 40 nM.
